± gives the uncertainty stated by the source.
Experiment: protein stability index of a GFP-peptide fusion (yeast GPS) (PSI 1-4); higher = more stable; sorted into four equal gates, so the index is relative within each strain
How it was run: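 Plasmids in a pooled yeast library fused tiled 17-residue yeast protein peptides downstream of GFP and also expressed Cherry. Mid-log cultures grown without leucine were sorted into four equal gates by GFP/Cherry fluorescence ratio. Each gate's plasmids were PCR-amplified and Illumina-sequenced, and reads were matched to strains by barcodes. The protein stability index is derived by multiplying each gate's read frequency by its gate number and summing the results.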

Sequence | protein stability index (doa10∆) | protein stability index (pdr5∆) | protein stability index (san1∆) | protein stability index (ubr1∆)
HTLALEFVNGGKVVKNV [RRP46] | 2.2 ± 0.18 | 2.22 ± 0.074 | 2.19 ± 0.29 | 2.14 ± 0.13
HTPTIASYLTPLLEAKK [SSN2] | 3.04 ± 0.063 | 3.04 ± 0.051 | 3.01 ± 0.049 | 3.07 ± 0.048
HTSPHQPSDVKPTSHKQ [SIR4] | 2.76 ± 0.057 | 3.08 ± 0.059 | 2.9 ± 0.047 | 2.52 ± 0.044
HVDSLIEDFVDGIANSK [SRB7] | 3.06 ± 0.1 | 3.3 ± 0.077 | 3.04 ± 0.059 | 3.08 ± 0.057
HVINVGKTWEKLVLAAR [RPS0A] | 3.41 ± 0.15 | 3.49 ± 0.21 | 3.39 ± 0.13 | 3.12 ± 0.098
HVKAGKGLIKVNGSPIT [RPS16A] | 2.62 ± 0.065 | 2.78 ± 0.059 | 2.87 ± 0.061 | 3.1 ± 0.051
HVKIRATGGTRTKTPGP [RPS14B] | 1.38 ± 0.13 | 1.84 ± 0.15 | 2.25 ± 0.25 | –
HVLKTVDYGGAEWSLVR [SNU114] | 3.09 ± 0.19 | 3.42 ± 0.21 | 3.11 ± 0.18 | 1.31 ± 0.29
HVNKRKRVSGTSQHSDS [YOR098C/NUP1] | 1.93 ± 0.077 | 2.31 ± 0.11 | 2.22 ± 0.1 | 1.64 ± 0.076
HVTQEDFELAVGKVMNK [RPT6] | 2.83 ± 0.17 | 2.82 ± 0.13 | 2.62 ± 0.13 | 2.69 ± 0.15
HVVGRIAEVGNKRWKVD [RRP4] | – | 3 ± 0.17 | 2.89 ± 0.16 | 2.67 ± 0.082
HYLVNLTSPAFGPHVDV [GRR1] | 2.27 ± 0.14 | 2.87 ± 0.12 | 2.16 ± 0.25 | 3.42 ± 0.28
HYPEIEDLVDRIENPEK [RPP0] | 2.84 ± 0.1 | 3.17 ± 0.081 | 2.97 ± 0.12 | 3.05 ± 0.072
IAAIIGRLNTLVISLAA [IRR1] | 2.1 ± 0.035 | 1.99 ± 0.036 | 2.31 ± 0.052 | 1.77 ± 0.03
IAATGLNQINGLNNDFL [GRR1] | 3.34 ± 0.17 | 3.26 ± 0.14 | 3 ± 0.1 | 3.19 ± 0.12
IAAYIRRHRNPDLQFIV [SMC1] | 1.16 ± 0.048 | 1.21 ± 0.047 | 1.2 ± 0.079 | 1.07 ± 0.04
IADLDTEAEETSIHSTI [RRP43] | 3.76 ± 0.18 | 2.56 ± 0.17 | 3.54 ± 0.11 | 3.38 ± 0.15
IAGHDEFNGFSLYQVDP [PRE8] | 3.15 ± 0.09 | 3.31 ± 0.15 | 3.21 ± 0.11 | 2.94 ± 0.095
IAGTFNVGKPDQSIASG [YOR098C/NUP1] | 3.14 ± 0.1 | 2.68 ± 0.18 | 2.96 ± 0.063 | 2.98 ± 0.082
IAGVITRSKRLSQVYPT [CSN12] | 2.91 ± 0.18 | 2.84 ± 0.11 | 3.11 ± 0.12 | 3.01 ± 0.071
IAHENEQKWLIYDKKDH [SRB8] | 2.88 ± 0.13 | 2.83 ± 0.093 | 2.77 ± 0.17 | 2.8 ± 0.071

Sequence | protein stability index (doa10∆) | protein stability index (pdr5∆) | protein stability index (san1∆) | protein stability index (ubr1∆)
IAHNISAKNRVVILARA [RPL32] | 1.66 ± 0.043 | 1.71 ± 0.058 | 1.76 ± 0.085 | 1.52 ± 0.043
IAKSRYWYFLQKLHKVK [RPL20A] | 3.06 ± 0.11 | 3.06 ± 0.087 | 2.79 ± 0.075 | 3.03 ± 0.084
IALEGYRLDIIESALKS [RPN2] | – | 1.49 ± 0.15 | – | 1.25 ± 0.15
IAPRRKRLADGLSVTQK [DIS3] | 3.38 ± 0.088 | 3.3 ± 0.074 | 3.16 ± 0.068 | 3.1 ± 0.061
IAQSKKKNNKIKESSKK [SRP21] | 3.09 ± 0.1 | 2.96 ± 0.087 | 3.01 ± 0.072 | 3.16 ± 0.063
IASMSTVRASSLQDLIY [SMC2] | 1.92 ± 0.069 | 2.33 ± 0.1 | 2.53 ± 0.092 | 2.25 ± 0.037
IAYGASQLLLERLMISS [RET1] | 1.75 ± 0.092 | 1.94 ± 0.073 | 2 ± 0.16 | 1.39 ± 0.069
ICQIISSTITGDVVLAA [RPL5] | 2.84 ± 0.063 | 1.89 ± 0.058 | 2.31 ± 0.069 | 3.06 ± 0.099
IDDRDYVGNKRLELAGQ [RET1] | 3.22 ± 0.15 | 3.47 ± 0.11 | 3.05 ± 0.12 | 3.58 ± 0.13
IDEPIKSIMDGIHDGHI [FAS1] | 1.97 ± 0.044 | 1.87 ± 0.059 | 1.52 ± 0.094 | 1.57 ± 0.038
IDFTLLNRLLRLIVDPN [PRP8] | 1.85 ± 0.059 | 1.88 ± 0.058 | 1.84 ± 0.071 | 1.73 ± 0.051
IDGCVKIGDLGLARKFH [SSN3] | 2.98 ± 0.078 | 3.33 ± 0.08 | 3.14 ± 0.058 | 3.37 ± 0.043
IDIQTQDLNQRFQDPYV [RRI1] | – | 2.86 ± 0.18 | 2.28 ± 0.22 | –
IDLDHKRFLILQGEVEN [SMC4] | 1.58 ± 0.073 | 2.09 ± 0.087 | 1.81 ± 0.09 | 2.46 ± 0.057
IDLLLLGQERATDLAGP [PRP8] | 2.47 ± 0.047 | 2.58 ± 0.083 | 2.34 ± 0.087 | 2.29 ± 0.05
IDMLPMLLGTDLCSLKP [DIS3] | 2.74 ± 0.066 | 2.71 ± 0.065 | 2.69 ± 0.07 | 2.45 ± 0.057
IDQVNELVTISWVQPRI [RPN9] | 3.33 ± 0.069 | 3.28 ± 0.069 | 3.22 ± 0.045 | 3.15 ± 0.067
IDSFFLYVLPSFNIPRL [YMR129W/POM152] | 1.77 ± 0.05 | 1.57 ± 0.038 | 1.64 ± 0.093 | 1.26 ± 0.031
IDSTDHIRKASSKKSKR [LRP1] | 2.15 ± 0.046 | 1.99 ± 0.039 | 1.83 ± 0.058 | 2.14 ± 0.038
IDYALTAVKQGVTSLGI [PRE8] | 2.27 ± 0.072 | 2.07 ± 0.056 | 1.93 ± 0.071 | 1.62 ± 0.085
IEDVTPVPSDSTRKKGG [RPS14B] | 2.99 ± 0.039 | 3.15 ± 0.045 | 2.96 ± 0.051 | 3.03 ± 0.04
